In article PMC3962104 one finds stoichiometry N data, which are given here for one molecule.

The experiment deals with T1, S. cerevisiae Ump1, C-terminally 6His-tagged (wild type) (S. cerevisiae), P38293.
T1 chain: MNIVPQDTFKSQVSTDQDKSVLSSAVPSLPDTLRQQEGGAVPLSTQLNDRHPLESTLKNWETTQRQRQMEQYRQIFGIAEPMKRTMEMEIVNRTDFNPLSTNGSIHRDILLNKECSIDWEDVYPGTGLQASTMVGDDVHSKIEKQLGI
Put plainly: non-reducing SDS-PAGE; ion-exchange peak fractions loaded in sample buffer without (-) or with (+) 10 mM DTT, 15% SDS-PAGE, Coomassie Blue; the 36 kDa species is seen when no reducing agent is added. The conditions noted are these: remark: other sources report otherwise.

B1: S. cerevisiae Ump1, C-terminally 6His-tagged (wild type), P38293 1-148 (natural protein)
chain: MNIVPQDTFKSQVSTDQDKSVLSSAVPSLPDTLRQQEGGAVPLSTQLNDRHPLESTLKNWETTQRQRQMEQYRQIFGIAEPMKRTMEMEIVNRTDFNPLSTNGSIHRDILLNKECSIDWEDVYPGTGLQASTMVGDDVHSKIEKQLGI
Take B1: the stoichiometry N came to 2.
